Test results from PMC3515690 (Nature structural & molecular biology, 2012).
Like-named read-outs stand apart in the source and are kept apart here.

Key:
crystal structure [1] = target: the molecule itself; assay: crystal structure
[2] = target: T1, Atg7 with a Gly-Gly-Ser-Gly insertion after Leu291 (S. cerevisiae, UniProt P38862 1-630, Gly-Gly-Ser-Gly insertion after Atg7’s Leu291); assay: cross-linking
T1 sequence (looked up): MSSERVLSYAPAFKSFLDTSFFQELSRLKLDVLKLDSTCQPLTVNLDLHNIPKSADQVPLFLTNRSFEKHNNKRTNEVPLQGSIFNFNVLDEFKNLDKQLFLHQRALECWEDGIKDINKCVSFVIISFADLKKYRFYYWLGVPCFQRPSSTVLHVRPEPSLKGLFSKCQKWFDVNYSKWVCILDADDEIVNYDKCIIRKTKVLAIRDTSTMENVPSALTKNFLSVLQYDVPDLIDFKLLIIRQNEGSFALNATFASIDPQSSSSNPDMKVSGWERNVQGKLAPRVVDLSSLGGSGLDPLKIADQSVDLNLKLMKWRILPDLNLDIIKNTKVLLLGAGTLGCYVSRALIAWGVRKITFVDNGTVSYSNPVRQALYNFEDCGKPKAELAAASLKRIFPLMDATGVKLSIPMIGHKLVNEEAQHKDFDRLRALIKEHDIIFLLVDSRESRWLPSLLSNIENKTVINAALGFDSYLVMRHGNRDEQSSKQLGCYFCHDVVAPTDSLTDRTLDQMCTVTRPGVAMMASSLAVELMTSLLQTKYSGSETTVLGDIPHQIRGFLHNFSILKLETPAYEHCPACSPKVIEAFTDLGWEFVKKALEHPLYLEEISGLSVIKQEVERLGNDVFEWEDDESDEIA

[3] = target: T2, Atg7 with residues 290–294 deleted (S. cerevisiae, UniProt P38862 1-630, deletion of residues 290–294); assay: cross-linking
T2 sequence (looked up): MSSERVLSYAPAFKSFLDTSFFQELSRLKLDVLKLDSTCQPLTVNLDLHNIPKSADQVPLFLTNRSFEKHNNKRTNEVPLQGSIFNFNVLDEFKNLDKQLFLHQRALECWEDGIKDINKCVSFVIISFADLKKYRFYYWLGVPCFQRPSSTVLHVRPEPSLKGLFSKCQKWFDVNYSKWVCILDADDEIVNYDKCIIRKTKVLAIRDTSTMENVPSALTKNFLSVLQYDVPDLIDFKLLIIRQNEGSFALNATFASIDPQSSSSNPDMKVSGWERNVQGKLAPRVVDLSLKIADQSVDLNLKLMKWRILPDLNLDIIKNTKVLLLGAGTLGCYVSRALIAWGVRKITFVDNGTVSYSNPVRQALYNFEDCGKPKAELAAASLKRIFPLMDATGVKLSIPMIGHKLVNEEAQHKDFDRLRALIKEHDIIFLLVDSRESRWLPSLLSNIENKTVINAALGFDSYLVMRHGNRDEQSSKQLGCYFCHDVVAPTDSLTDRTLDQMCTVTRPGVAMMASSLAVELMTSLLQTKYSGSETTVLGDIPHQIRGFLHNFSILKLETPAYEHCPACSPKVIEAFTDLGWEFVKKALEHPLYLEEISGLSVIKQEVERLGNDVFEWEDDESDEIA

Atg7 P283D = target: T3, Atg7 P283D (S. cerevisiae, UniProt P38862 1-630, P283D); assay: cross-linking
T3 sequence (looked up): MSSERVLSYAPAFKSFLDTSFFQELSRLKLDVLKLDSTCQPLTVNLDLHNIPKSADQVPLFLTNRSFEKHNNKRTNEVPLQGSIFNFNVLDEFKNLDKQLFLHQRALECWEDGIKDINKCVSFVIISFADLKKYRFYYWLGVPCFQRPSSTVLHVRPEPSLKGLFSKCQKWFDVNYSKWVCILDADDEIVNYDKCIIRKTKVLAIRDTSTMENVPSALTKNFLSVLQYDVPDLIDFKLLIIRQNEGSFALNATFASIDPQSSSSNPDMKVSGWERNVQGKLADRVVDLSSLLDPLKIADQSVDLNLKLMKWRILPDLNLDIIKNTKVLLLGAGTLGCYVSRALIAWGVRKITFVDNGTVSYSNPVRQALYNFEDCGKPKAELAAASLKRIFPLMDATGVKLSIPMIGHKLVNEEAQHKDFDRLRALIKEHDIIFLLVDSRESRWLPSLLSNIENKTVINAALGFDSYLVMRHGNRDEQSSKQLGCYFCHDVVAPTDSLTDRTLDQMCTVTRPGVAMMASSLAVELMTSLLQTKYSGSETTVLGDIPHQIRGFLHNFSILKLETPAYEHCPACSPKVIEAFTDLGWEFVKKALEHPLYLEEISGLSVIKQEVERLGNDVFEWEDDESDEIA

crystal structure [4] = target: the molecule itself; assay: crystal structure; remark: listed apart in the source

B1: Atg7 (residues 1–613) (enzyme, S. cerevisiae, UniProt P38862 1-613, looked up)
chain: MSSERVLSYAPAFKSFLDTSFFQELSRLKLDVLKLDSTCQPLTVNLDLHNIPKSADQVPLFLTNRSFEKHNNKRTNEVPLQGSIFNFNVLDEFKNLDKQLFLHQRALECWEDGIKDINKCVSFVIISFADLKKYRFYYWLGVPCFQRPSSTVLHVRPEPSLKGLFSKCQKWFDVNYSKWVCILDADDEIVNYDKCIIRKTKVLAIRDTSTMENVPSALTKNFLSVLQYDVPDLIDFKLLIIRQNEGSFALNATFASIDPQSSSSNPDMKVSGWERNVQGKLAPRVVDLSSLLDPLKIADQSVDLNLKLMKWRILPDLNLDIIKNTKVLLLGAGTLGCYVSRALIAWGVRKITFVDNGTVSYSNPVRQALYNFEDCGKPKAELAAASLKRIFPLMDATGVKLSIPMIGHKLVNEEAQHKDFDRLRALIKEHDIIFLLVDSRESRWLPSLLSNIENKTVINAALGFDSYLVMRHGNRDEQSSKQLGCYFCHDVVAPTDSLTDRTLDQMCTVTRPGVAMMASSLAVELMTSLLQTKYSGSETTVLGDIPHQIRGFLHNFSILKLETPAYEHCPACSPKVIEAFTDLGWEFVKKALEHPLYLEEISGLSVIKQEVER
modifications: catalytic Cys507 linked through bismaleimidoethane (BMOE) to Atg3 Cys234
stoichiometry N (crystal structure [1]): 2

B2: Atg10 (Cys133only, with C26A and C137A) (enzyme, S. cerevisiae, UniProt Q07879 1-167, looked up)
chain: MIPYQEWHSQLQSLYDSQIFHNWALAQDVHLNDEKDGLLLRLIPTRQLQKNTERIENKLLNHIELYLTYSKVYNEPLLLLRIWEEKSIDGIPMTKLMLPTDIESLLDVQGKFQLGLDTIINLEGSVWYSFHPCDTSAIVGDQAEFMSTYLRRWVSIFIFSWLGYEDS
modifications: Cys133 reacted with bismaleimidoethane (BMOE)
binding result [2]: binds | binding result [3]: binds | binding result (Atg7 P283D): binds

B3: Atg7(1–613 C39S C195S C375A) (enzyme, S. cerevisiae, UniProt P38862 1-613, looked up)
chain: MSSERVLSYAPAFKSFLDTSFFQELSRLKLDVLKLDSTSQPLTVNLDLHNIPKSADQVPLFLTNRSFEKHNNKRTNEVPLQGSIFNFNVLDEFKNLDKQLFLHQRALECWEDGIKDINKCVSFVIISFADLKKYRFYYWLGVPCFQRPSSTVLHVRPEPSLKGLFSKCQKWFDVNYSKWVCILDADDEIVNYDKSIIRKTKVLAIRDTSTMENVPSALTKNFLSVLQYDVPDLIDFKLLIIRQNEGSFALNATFASIDPQSSSSNPDMKVSGWERNVQGKLAPRVVDLSSLLDPLKIADQSVDLNLKLMKWRILPDLNLDIIKNTKVLLLGAGTLGCYVSRALIAWGVRKITFVDNGTVSYSNPVRQALYNFEDAGKPKAELAAASLKRIFPLMDATGVKLSIPMIGHKLVNEEAQHKDFDRLRALIKEHDIIFLLVDSRESRWLPSLLSNIENKTVINAALGFDSYLVMRHGNRDEQSSKQLGCYFCHDVVAPTDSLTDRTLDQMCTVTRPGVAMMASSLAVELMTSLLQTKYSGSETTVLGDIPHQIRGFLHNFSILKLETPAYEHCPACSPKVIEAFTDLGWEFVKKALEHPLYLEEISGLSVIKQEVER
modifications: catalytic Cys507 linked through bismaleimidoethane (BMOE) to Atg10 Cys133
stoichiometry N (crystal structure [4]): 2
